Broadly, the Kd is the equilibrium constant for the complex coming apart.

The target of this test is recombinant biotinylated SARS-CoV-2 spike RBD, wild type (SARS-CoV-2) (UniProt P0DTC2). The test is described as follows: BLI. Particulars: bispecific antibody.
On to “bispecific antibody BI-1C2C (IgG-ScFv format, from mAbs 13-1C and 6-2C) (from UniProt P01857)”, for which the Kd worked out at 2.16 nM.
As for “bispecific antibody BI-2C1C (IgG-ScFv format, from mAbs 6-2C and 13-1C) (from UniProt P01857)”, the figure is 1.04 nM.
Turning to “bispecific antibody BI-2C5B (IgG-ScFv format: 6-2C IgG with 10-5B ScFv) (from UniProt P01857)”, the Kd is 4.71 nM.
As for “bispecific antibody BI-5B2C (IgG-ScFv format: 10-5B IgG with 6-2C ScFv) (from UniProt P01857)”, the figure is 4.89 nM.

Values taken from PMC10107573.
